Targets include P1.40 D89A; P1.40 T109A; P1.40 D62A; P1.40 R43A; P1.40 E44A; P1.40 F110A; P1.40 R111A; P1.40 E46A.
Holding throughout (test): BLI

B1: CHRD (aa 449–693) of human PCSK9, 6xHis-tagged (domain or fragment)
chain: HGAGWQLFCRTVWSAHSGPTRMATAVARCAPDEELLSCSSFSRSGKRRGERMEAQGGKLVCRAHNAFGGEGVYAIARCCLLPQANCSVHTAPPAEASMGTRVHCHQQGHVLTGCSSHWEVEDLGTHKPPVLRPRGQPNQCVGHREASIHASCCHAPGLECKVKEHGIPAPQEQVTVACEEGWTLTGCSALPGTSHVLGAYAVDNTCVVRSRDVSTTGSTSEGAVTAVAICCRSRHLAQASQELQ
modifications: biotinylated where it was immobilised for BLI (site not told)
Regarding B1, the Kd is 2.79 nM in the test with P1.40 D89A; above 1000 nM with P1.40 T109A; 1.26 nM with P1.40 D62A; 2.86 nM with P1.40 R43A; 0.477 nM with P1.40 E44A; above 1000 nM with P1.40 F110A. In addition, the values for the Kd in the test with P1.40 R111A and in the test with P1.40 E46A were 3.49 nM and 1.22 nM, respectively. For the same molecule, the koff with P1.40 D89A was 0.000882 s⁻¹; with P1.40 T109A, above 0.001 s⁻¹; in the test with P1.40 D62A, 0.000668 s⁻¹; with P1.40 R43A it was 0.00141 s⁻¹; with P1.40 E44A it was 0.000359 s⁻¹; in the test with P1.40 F110A it was above 0.001 s⁻¹. For the same molecule, the koff with P1.40 R111A worked out at 0.00147 s⁻¹; with P1.40 E46A, 0.00064 s⁻¹.

For the origin of these results see article PMC9816786 (2022).
